The stoichiometry N is a count of units in the complex or per binding partner.

The target in this experiment is T1, bacteriophage MS2 coat protein (bacteriophage MS2), P03612.
T1 chain: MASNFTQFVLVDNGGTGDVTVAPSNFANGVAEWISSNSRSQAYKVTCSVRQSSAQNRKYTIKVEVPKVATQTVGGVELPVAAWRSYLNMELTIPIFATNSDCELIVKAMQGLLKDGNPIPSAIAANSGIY
In words: cryo-EM structure; single particle cryo-EM of purified MS2 virions (coat protein, A-protein and RNA genome); icosahedral reconstruction at 4.1 Å and asymmetric reconstruction at 8.7 Å. As to conditions: remark: other sources report otherwise.

B1: bacteriophage MS2 coat protein, P03612 1-130 (natural protein)
chain: T1 chain
As to B1, the stoichiometry N was determined as 178 copies.
